# *1 amine or outer side, *2 acyl side, *3 side chain or, on linkers, in order; H or OH if unused. Bridges are numbered along the chain shown (N, C = ends). Where no end group is shown, it is not given here. [ ]: non-standard residue; d: D form. Azetidine3carboxylic = O=C(C1CN([*:1])C1)[*:2]; dimethyl = N-terminal dimethyl modification; Phe(4-Cl) = N[C@@H](Cc1ccc(Cl)cc1)C(=O)O; 2Nal = N[C@@H](Cc1ccc2ccccc2c1)C(=O)O; NMeCha = CN[C@@H](CC1CCCCC1)C(=O)O; hArg = N=C(N)NCCCC[C@H](N)C(=O)O; NMeQ = CN[C@@H](CCC(N)=O)C(=O)O; dNMeQ = CN[C@H](CCC(N)=O)C(=O)O; Cha = N[C@@H](CC1CCCCC1)C(=O)O; dCha = N[C@H](CC1CCCCC1)C(=O)O; AllylGly = C=CC[C@H](N)C(=O)O; αMeL = CC(C)C[C@](C)(N)C(=O)O; Cba = N[C@@H](CC1CCC1)C(=O)O; S5 = C=CCCC[C@](C)(N)C(=O)O; Nle = CCCC[C@H](N)C(=O)O; Ac4c = NC1(C(=O)O)CCC1
# T1: β-catenin (UniProt P35222 1-781, limits assumed)
# T1 construct: also called beta-catenin
# T1 sequence (looked up): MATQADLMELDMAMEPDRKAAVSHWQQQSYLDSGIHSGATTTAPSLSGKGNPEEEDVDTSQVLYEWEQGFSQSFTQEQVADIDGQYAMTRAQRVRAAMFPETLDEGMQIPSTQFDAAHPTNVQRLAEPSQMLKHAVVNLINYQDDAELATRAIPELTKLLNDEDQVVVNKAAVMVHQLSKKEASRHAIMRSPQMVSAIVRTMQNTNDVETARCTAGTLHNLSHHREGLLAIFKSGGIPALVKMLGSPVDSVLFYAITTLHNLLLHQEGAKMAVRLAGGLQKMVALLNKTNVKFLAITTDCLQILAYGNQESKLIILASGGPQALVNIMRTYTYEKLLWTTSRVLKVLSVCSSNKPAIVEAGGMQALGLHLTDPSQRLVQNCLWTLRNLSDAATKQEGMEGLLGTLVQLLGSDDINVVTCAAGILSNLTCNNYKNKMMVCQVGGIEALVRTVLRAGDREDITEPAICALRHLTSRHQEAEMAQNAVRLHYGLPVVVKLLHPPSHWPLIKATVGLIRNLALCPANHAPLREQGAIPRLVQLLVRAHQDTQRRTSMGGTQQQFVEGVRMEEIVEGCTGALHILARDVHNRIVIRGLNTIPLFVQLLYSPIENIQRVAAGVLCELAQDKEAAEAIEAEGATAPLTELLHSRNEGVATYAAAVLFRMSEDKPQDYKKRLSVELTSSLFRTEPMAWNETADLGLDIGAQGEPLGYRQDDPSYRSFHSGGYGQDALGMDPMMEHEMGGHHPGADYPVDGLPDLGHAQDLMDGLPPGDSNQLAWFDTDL
# Biological target: T1, β-catenin
# Experiment: ALPHA Screen (BCL9/β-catenin);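 further: bead proximity readout with the polypeptide linked to donor beads and β-catenin fixed on acceptor beads, their binding bringing the beads close enough to emit signal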
row,IC50 [µM],Binder
1,0.261,Ac-HRQRSL[NMeQ]TLR[S5]IQR[S5][Cba][2Nal]-NH2 (staple 11-15) [SEQ ID NO: 153]
2,0.119,Ac-H[hArg]QRSLQTLR[S5]IQR[S5][Cha][2Nal]-NH2 (staple 11-15; SMILES CC[C@H](C)[C@@H]1NC(=O)[C@@](C)(NC(=O)[C@H](CCCNC(=N)N)NC(=O)[C@H](CC(C)C)NC(=O)[C@@H](NC(=O)[C@H](CCC(N)=O)NC(=O)[C@H](CC(C)C)NC(=O)[C@H](CO)NC(=O)[C@H](CCCNC(=N)N)NC(=O)[C@H](CCC(N)=O)NC(=O)[C@H](CCCCNC(=N)N)NC(=O)[C@H](Cc2c[nH]cn2)NC(C)=O)[C@@H](C)O)CCCC=CCCC[C@@](C)(C(=O)N[C@@H](CC2CCCCC2)C(=O)N[C@@H](Cc2ccc3ccccc3c2)C(N)=O)NC(=O)[C@H](CCCNC(=N)N)NC(=O)[C@H](CCC(N)=O)NC1=O) [SEQ ID NO: 183]
3,0.563,Ac-HRQRSLQTLR[S5]IQR[S5][Azetidine3carboxylic][2Nal]-NH2 (staple 11-15; SMILES CC[C@H](C)[C@@H]1NC(=O)[C@@](C)(NC(=O)[C@H](CCCNC(=N)N)NC(=O)[C@H](CC(C)C)NC(=O)[C@@H](NC(=O)[C@H](CCC(N)=O)NC(=O)[C@H](CC(C)C)NC(=O)[C@H](CO)NC(=O)[C@H](CCCNC(=N)N)NC(=O)[C@H](CCC(N)=O)NC(=O)[C@H](CCCNC(=N)N)NC(=O)[C@H](Cc2c[nH]cn2)NC(C)=O)[C@@H](C)O)CCCC=CCCC[C@@](C)(C(=O)N2CC(C(=O)N[C@@H](Cc3ccc4ccccc4c3)C(N)=O)C2)NC(=O)[C@H](CCCNC(=N)N)NC(=O)[C@H](CCC(N)=O)NC1=O) [SEQ ID NO: 178]
4,6.66,{4‑biphenyl acetic acid}-L[NMeQ]TLR[S5]IQR[S5][Cba][2Nal]-NH2 (staple 6-10; not fully specified) [SEQ ID NO: 143]
5,6.84,Ac-[dL]QTIR[S5]IQR[S5]L[2Nal]-NH2 (staple 6-10) [SEQ ID NO: 102]
6,0.913,Ac-LETLR[S5]IQR[S5][Cba][2Nal]-NH2 (staple 6-10) [SEQ ID NO: 109]
7,8,Ac-LQTLR[S5]IQR[S5][αMeL][2Nal]-NH2 (staple 6-10; not fully specified (residue 2); printed as L(N-methylQ)TLRXIQRX(α-methylL)(2-Nal); also: N-methylQ at 2: D or L (both stated)) [SEQ ID NO: 172]
8,4.9,"[Cba][dNMeQ]TLR[S5]IQR[S5][Cba][2Nal] (staple 6-10; not fully specified (N-terminus, C-terminus); printed as (CBA)(N-methylQ)TLRXIQRX(CBA)(2-Nal), X/X stapled, (S) α-methyl, N-terminal Ac, C-terminal NH2) [SEQ ID NO: 114]"
9,4.53,Ac-LQT[Cba]R[S5]IQR[S5][Cba][2Nal]-NH2 (staple 6-10) [SEQ ID NO: 115]
10,10.7,Ac-LQTLR[S5]IQR[S5][dL][2Nal]-NH2 (staple 6-10) [SEQ ID NO: 105]
11,13,"Ac-L[NMeQ]TLR[S5]IQR[S5][Phe(4-Cl)][2Nal]-NH2 (staple 6-10; not fully specified; printed as L(N-methylQ)TLRXIQRX(4-Cl-Ph)(2-Nal), X/X stapled, (S) α-methyl, N-terminal Ac, C-terminal NH2) [SEQ ID NO: 195]"
12,6.99,Ac-[Cba]QTLR[S5]IQR[S5][Cba][2Nal]-NH2 (staple 6-10) [SEQ ID NO: 113]
13,3.62,Ac-L[NMeQ]T[Cha]R[S5]IQR[S5][Cba][2Nal]-NH2 (staple 6-10; not fully specified; printed as L(N-methylQ)T(Cha)RXIQRX(CBA)(2-Nal)) [SEQ ID NO: 123]
14,5.65,Ac-LQTLR[S5]IQH[S5][Cba][2Nal]-NH2 (staple 6-10) [SEQ ID NO: 112]
15,2.06,Ac-L[NMeQ]TLR[S5][Cba]QR[S5][Cba][2Nal]-NH2 (staple 6-10; not fully specified; printed as L(N-methylQ)TLRX(CBA)QRX(CBA)(2-Nal)) [SEQ ID NO: 129]
16,2.86,Ac-LQT[dL]R[S5]IQR[S5]L[2Nal]-NH2 (staple 6-10) [SEQ ID NO: 103]
17,9.71,Ac-LQTLR[S5]IQR[S5][AllylGly][2Nal]-NH2 (staple 6-10) [SEQ ID NO: 175]
18,1.45,Ac-RERSLQTLR[S5]IQR[S5]L[2Nal]-NH2 (staple 10-14; not fully specified; printed as RERSLQTLRXIQRXL(2-Nal)) [SEQ ID NO: 5]
19,4.2,Ac-QERSLQTLR[S5]IQR[S5]L[2Nal]-NH2 (staple 10-14; not fully specified; printed as QERSLQTLRXIQRXL(2-Nal)) [SEQ ID NO: 10]
20,0.844,Ac-RERSLQTLR[S5]IQR[S5][Cba][2Nal]-NH2 (staple 10-14; not fully specified; printed as RERSLQTLRXIQRX(CBA)(2-Nal)) [SEQ ID NO: 13]
21,14.7,Ac-LQTLR[S5]IQR[S5][dCha][2Nal]-NH2 (staple 6-10; not fully specified (residue 2); printed as L(N-methylQ)TLRXIQRXD(Cha)(2-Nal); also: N-methylQ at 2: D or L (both stated)) [SEQ ID NO: 173]
22,6.88,Ac-LQTLR[S5]IQR[S5][NMeCha][2Nal]-NH2 (staple 6-10; not fully specified (residue 2); printed as L(N-methylQ)TLRXIQRX(N-methylCha)(2-Nal); also: N-methylQ at 2: D or L (both stated)) [SEQ ID NO: 174]
23,14.7,LQTLR[Nle]IQR[Nle]L[2Nal]PD [SEQ ID NO: 54]
24,0.236,Ac-HRQRSLQTLR[S5]IQR[S5][Ac4c][2Nal]-NH2 (staple 11-15) [SEQ ID NO: 176]
25,2.13,dimethyl-L[NMeQ]TLR[S5]IQR[S5][Cba][2Nal]-NH2 (staple 6-10; not fully specified) [SEQ ID NO: 144]

# — US20200262867A1 (WNTRX PHARMACEUTICALS, published 2020)
